Measured values taken from US20240343803A1 (SHANDONG SIMCERE BIOPHARMACEUTICAL, published 2024).

T1: Fusion protein of extracellular domain of human TIGIT and mouse IgG2a Fc fragment (human TIGIT ECD-mFc) (human)
T1 construct: The entry includes the signal peptide (limits not recoverable) and the mouse IgG2a Fc
T1 chain: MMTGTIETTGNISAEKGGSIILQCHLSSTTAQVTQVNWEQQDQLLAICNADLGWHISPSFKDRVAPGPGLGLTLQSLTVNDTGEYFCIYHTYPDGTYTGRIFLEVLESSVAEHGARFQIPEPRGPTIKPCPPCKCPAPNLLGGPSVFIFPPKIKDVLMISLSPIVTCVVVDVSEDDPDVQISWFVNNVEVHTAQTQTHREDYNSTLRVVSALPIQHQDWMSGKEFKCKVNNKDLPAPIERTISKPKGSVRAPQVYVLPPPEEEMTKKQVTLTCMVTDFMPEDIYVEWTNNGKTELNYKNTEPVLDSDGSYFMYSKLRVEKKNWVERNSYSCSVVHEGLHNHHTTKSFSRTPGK

T2: human PVRIG-mFc protein (Acro, PVG-H5253) (human, UniProt Q6DKI7 41-171, limits assumed)
T2 construct: bought protein
T2 sequence (looked up): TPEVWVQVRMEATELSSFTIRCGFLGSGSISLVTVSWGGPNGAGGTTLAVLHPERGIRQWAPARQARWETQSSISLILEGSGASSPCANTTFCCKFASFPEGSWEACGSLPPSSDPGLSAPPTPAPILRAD

B1: TIGIT-070-H1L1 (antibody, V domains shown)
VH: EVQLVQSGAEVKKPGASVKVSCKASGYTFTNYYMHWVRQAPGQRLEWMGRIDPDSGGSKYNEKFKSRVTITVDKSASTAYMELSSLRSEDTAVYYCAREGHYGFYSDYWGQGTTVTVSS
VL: DIQMTQSPSSLSASVGDRVTITCRVSENIYSYLAWYQQKPGKSPKLLIYNAKTLAEGVPSRFSGSGSGTDFTLTISSLQPEDFATYYCQHHYGNPLTFGPGTKVDIK
notes: Humanized anti-TIGIT antibody
B2: PVRIG-A118 (Fc fusion)
chain: QVQLVESGGGLVQAGGSLRLSCAASETYFDLYVMGWYRQAPGKDRELVATITYTGSIKIVDSVKDRFTISRGDAKNTVSLQMSSLKPEDTAVYFCNADPSGLGRKVYWGQGTQVTVSS
notes: heavy chain antibody VHH-hinge-CH2-CH3, human IgG1 constant part; not shown: human IgG1 hinge-CH2-CH3
B3: TIGIT-002-H4L3 (antibody, V domains shown)
VH: EVQLQESGPGLVKPSETLSLTCAVSGYSITSDSWNWIRQPPGKKLEYIGYISYSGNTYYNPSLKSRVTISRDTSKNQFSLKLSSVTAADTAVYYCARLDFSNYGGAVDYWGQGTTVTVSS
VL: DIVMTQSPDSLAVSLGERATINCKASQNVRTAVAWYQQKPGQSPKLMIYSASYRYTGVPDRFSGSGSGTDFTLTISSLQAEDVAVYYCQQYYTTPWTFGGGTKVEIK
notes: Humanized anti-TIGIT antibody
B4: TIGIT-006-H5L3 (antibody, V domains shown)
VH: EVQLQESGPGLVKPSETLSLTCAVSGYSMTSDYWNWIRQPPGKKLEYIGYISYSGRTYYNPSLKSRVTISRDTSKNQFSLKLSSVTAADTAVYYCARGDYSNYGGAMYDWGQGTTVTVSS
VL: DIVMTQSPDSLAVSLGERATINCRASQGVSTTIAWYQQKPGQSPKLLIYSASYRYTGVPRFSGSGSGTDFTLTISSLQAEDVAVYYCQQYYSSPFTFGGGTKVEIK
notes: Humanized anti-TIGIT antibody
B5: TIGIT-005-H2L1d (antibody, V domains shown)
VH: EVQLVQSGAEVKKPGASVKVSCKASGYAFTNYLIEWVRQAPGQRLEWMGVINPGSGGTNYKEKFKGRVTITADKSSSTAYMELSSLRSEDTAVYYCARGEYFFFDYWGQGTTVTVSS
VL: DIVMTQSPDSLAVSLGERATINCKASQHVSNAVAWYQHKPGQSPKLLIYSASYRYTGVPDRFSGSGSGTDFTLTISSLQAEDVAVYYCQQHYNTPHTFGGGTKVEIK
notes: Humanized anti-TIGIT antibody with NG-site mutation in VL
B6: PVRIG-A50 (Fc fusion)
chain: EVQLVESGGGLVQPGGSLRLSCAASGFTFSYYDMSWVRQAPGKGLEWVSTINSNGGRTSYVDSVKGRFTISRDNTKNTLYLQMNSLKPEDTAVYYCVEGDPHNFGLENLSLRDFGSWGQGTQVTVSS
notes: heavy chain antibody VHH-hinge-CH2-CH3, human IgG1 constant part; also called PVRIG-50; not shown: human IgG1 hinge-CH2-CH3
B7: PVRIG-A105 (Fc fusion)
chain: EVQLVESGGGLVQAGGSLRLSCAASGRTFDRHTMTWFRQAPGKEREFVATASRIPGDTYYSHSVKGRFTISRDNAKNTVYLQLNNLKPEDTAVYYCAATSAYCSEVDCYEKGSWYDNWGQGIQVTVSS
notes: as for B2

How the values were obtained:
[1] = molecular target: T3, Full-length cynomolgus monkey TIGIT on CHO-K1 cells (CHO-K1 cynomolgus monkey TIGIT) (cynomolgus monkey); experiment: cell binding, CHO-K1 cynomolgus monkey TIGIT
T3 construct: NCBI XP_015300911.1
Summary of the method: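 Binding was measured by flow cytometry after a 60-minute, 4° C incubation of the antibodies with 2×10⁵ CHO-K1 cells displaying full-length human or cynomolgus monkey TIGIT. Antibody titration: 12 points, threefold serial dilution from 80 nM, in 1% BSA-PBS.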

[2] = molecular target: T1, Fusion protein of extracellular domain …; experiment: FACS; blocking of TIGIT ECD-mFc binding to CHO-K1 CD112 cells
Method: The collected CHO-K1 CD112 cells were washed once with PBS (Hyclone, CAT #SH30256) and resuspended to 2×10⁵/40 μL with 1% BSA-PBS. The anti-TIGIT humanized antibodies were diluted to 600 nM with 1% BSA-PBS (diluted by 2.5-fold serial dilution for 12 concentration points). The TIGIT ECD-mFc was diluted with 1% BSA-PBS to 6 μg/mL. The 40 μL cells were then mixed with 40 μL diluted antibodies and 40 μL diluted TIGIT ECD-mFc, and then incubated at 4° C. for 60 minutes. […] The cell samples were washed twice with PBS, resuspended to 100 μL/well with 1% BSA-PBS and then analyzed by flow cytometry (BD, Canto II). […] (f) The binding activity of anti-TIGIT humanized antibodies to human PBMCs detected by FACS.

[3] = molecular target: T3, Full-length cynomolgus monkey TIGIT on …; experiment: FACS; CHO-K1 cynomolgus monkey TIGIT
Summary of the method: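 Flow cytometry was used to measure antibody binding to CHO-K1 cells carrying full-length human or cynomolgus monkey TIGIT. Antibodies were serially diluted 3-fold across 12 points from 80 nM, then combined 1:1 with cells held at 2×10⁵/50 μL in 1% BSA-PBS and kept at 4° C for 60 min.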

[4] = molecular target: T2, human PVRIG-mFc protein (Acro, …); experiment: FACS competition, PVRIG-mFc binding to CHO-K1-CD112 cells, competitor CD112 on cells
Method: A working solution of human PVRIG-mFc protein (Acro, PVG-H5253) prepared with staining buffer, 1 μg/mL (four-fold concentration), was added into a 96-well plate (50 μL PVRIG-mFc working solution per well). […] The diluted antibodies were added to the well containing 50 μL of PVRIG-mFc. The plate was placed on a microplate shaker at 400 rpm for 1 minute to fully mix the antibodies and PVRIG-mFc proteins, and then incubated at 4° C. for 30 minutes. After the incubation, the cell suspension prepared above (100 μL) was added into the wells, gently mixed with the pipette tip and incubated at 4° C. for 30 minutes. After the incubation, the cells were washed twice with staining buffer (200 μL per well) and centrifuged at 350×g for 5 minutes to discard the supernatant. The PE goat anti-mouse IgG Fc antibody (Biolegend, 405337) was diluted 250 times with staining buffer, added into the washed wells (100 μL per well), mixed well, and stained at 4° C. for 30 minutes. After staining, the cells were washed twice with staining buffer, finally resuspended with 200 μL staining buffer and analyzed by flow cytometry (BD, Canto II). The weaker the fluorescence signal, the stronger the ability of the antibodies blocks the binding of CHO-K1 human CD112 cells to the PVRIG-mFc protein. An antibody binding curve was drawn with concentration of antibodies as the abscissa and the corresponding Mean Fluorescence Intensity (MFI) as the ordinate. The IC50 value of the antibodies and the AUC value of the binding curve were calculated by using a Four Parameter Logistic Fit (GraphPadPrism9). The smaller the IC50 value and AUC value, the stronger the ability of the antibodies competes with CHO-K1-CD112 cells to bind to human PVRIG-mFc protein. […] […] The smaller the percentage value, the stronger the blocking ability of the antibodies.

T3 sequence (chain, as listed by the source limits assumed): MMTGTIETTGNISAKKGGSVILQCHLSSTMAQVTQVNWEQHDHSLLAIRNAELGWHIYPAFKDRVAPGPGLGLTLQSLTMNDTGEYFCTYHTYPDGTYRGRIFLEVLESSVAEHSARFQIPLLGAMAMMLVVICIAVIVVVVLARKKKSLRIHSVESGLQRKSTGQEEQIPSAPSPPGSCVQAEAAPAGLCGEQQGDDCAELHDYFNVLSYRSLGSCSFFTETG

Row | Binder | EC50 [1] [nM] | IC50 [2] [nM] | EC50 [3] [nM] | % AUC to COM701-hIgG4 [4] [%] | % AUC to SRF813-hIgG1 [4] [%] | % IC50 to COM701-hIgG4 [4] [%] | % IC50 to SRF813-hIgG1 [4] [%]
1 | B1 | 0.0596 | 4.3 | 1.05 | – | – | – | –
2 | B2 | – | – | – | 110 | 75.6 | 111 | 97.4
3 | B3 | 0.0473 | 3.49 | 0.723 | – | – | – | –
4 | B4 | 0.0578 | 4.65 | 0.922 | – | – | – | –
5 | B5 | 0.0566 | 3.49 | 0.631 | – | – | – | –
6 | B6 | – | – | – | 104 | 81 | 99.1 | 91.8
7 | B7 | – | – | – | 115 | 84.1 | 99.7 | 97.7
